Measurements reported in PMC5059767.

Columns and labels:
[1] = target: endogenous PKAC (HEK293T) (human (endogenous in HEK293T)) (UniProt P17612)
mCherry-ARHGAP36 = assay: FLIM-FRET (Venus-YFP donor fluorescence lifetime) in MDCK cells; conditions: n≥4 each; mean±s.d.; donor alone (PKAC-YFP) est. 3.0 ns; parent: est. 2.4; read off a plot
[2] = target: PKAC-YFP (mouse PKAC-Venus-YFP), in MDCK cells (UniProt P05132); assay: as above; conditions: n≥4 each; mean±s.d.; donor alone (PKAC-YFP) est. 3.0 ns; parent: est. 2.4; read off a plot

Sequence of ARHGAP36-N2 (118–194) (Q6ZRI8 149-225): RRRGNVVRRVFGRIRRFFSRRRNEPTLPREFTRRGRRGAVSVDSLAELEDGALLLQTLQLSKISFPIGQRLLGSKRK

Row | Substance | reduction in mean FRET emission ratio of the PKA biosensor AKAR4-NES in HEK293T cells stimulated with Forskolin and IBMX [1] | other results
1 | ARHGAP36-N2 (118–194) (from UniProt Q6ZRI8-2 118-194) (domain or fragment) | 25.1% | –
2 | PKAC-YFP (mouse PKAC-Venus-YFP), in MDCK cells (from UniProt P05132) E127A; E170A; E230A | – | response (mCherry-ARHGAP36): 3 ns
3 | mCherry-ARHGAP36 (natural protein) | 25.7% | –
4 | mCherry-ARHGAP36 R153D; R154D; V157D | – | response [2]: 3 ns
